Reference: paper PMC11348266

Target: GRA4 (UniProt Q27002)
Experiment: exogenous co-IP
Settings: reference: wild type TBK1; sites S172

Substance: TBK1 (from UniProt Q9UHD2) TBK1 S172A
- binding against the reference: weaker
